Test results reported in the RNAGym collection of RNA variant scans (doi:10.1093/molbev/msab373).

B1: Azoarcus group I ribozyme (parent)
chain: GUGCCUUGCGCCGGGAAACCACGCAAGGGAUGGUGUCAAAUUCGGCGAAACCUAAGCGCCCGCCCGGGCGUAUGGCAACGCCGAGCCAAGCUUCGGCGCCUGCGCCGAUGAAGGUGUAGAGACUAGACGGCACCCACCUAAGGCAAACGCUAUGGUGAAGGCAUAGUCCAGGGAGUGGCGAAAGUCACACAAACCGG

Variants of: B1
Test: reverse-splicing fitness (ratio to wild type); higher = more active; in vitro selection; Mg2+ level not given
How it was run: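 An in vitro group I ribozyme library with randomized positions was T7-transcribed and gel-purified. In triplicate, 10 pmol RNA in EPPS pH 7.5 was reacted with 50 pmoles of a 30-nt RNA substrate for 1 h at 37 °C across several added MgCl2 levels (1–48 mM), then stopped with EDTA. Products were reverse transcribed from a substrate-complementary primer, PCR-amplified and sequenced (HiSeq 4000). Fitness is a variant's read proportion after selection over that before, normalised to wild type.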

Row | Variant | reverse-splicing fitness
1 | C82G A111C A120C A145G C150A C169U U176A | 0.0157
2 | C82G A111C A120C A145G C150A C169U U176G | 0.00795
3 | C82G A111C A120C A145G C150A C169U U176C | 0.0139
4 | C82G A111C A120G A145C C150G C169A U176C | 0.00738
5 | C82G A111C A120G A145C C150G C169A U176G | 0.005
6 | C82G A111C A120G A145C C150G C169A U176A | 0.00812
7 | C82G A111C A120C A145U C169U U176A | 0.0126
8 | C82G A111C A120C A145U C169U U176C | 0.0123
9 | C82G A111C A120C A145U C169U U176G | 0.00641
10 | C82G A111C A120C A145G C150G C169A | 0.00885
11 | C82G A111C A120C A145G C150G C169U | 0.00874
12 | C82G A111C A120C A145G C150G C169G | 0.00708
13 | C82G A111C A120G A145C C169A U176A | 0.0138
14 | C82G A111C A120G A145C C169A U176C | 0.00939
15 | C82G A111C A120G A145C C169A U176G | 0.00477
16 | C82G A111C A120G A145U C150A C169G | 0.00764
17 | C82G A111C A120G A145U C150A C169U | 0.00666
18 | C82G A111C A120G A145U C150A C169A | 0.00884
19 | C82G A111C A120C A145U C150U C169U U176C | 0.0153
20 | C82G A111C A120C A145U C150U C169U U176A | 0.015
21 | C82G A111C A120C A145U C150U C169U U176G | 0.00674

Row | Variant | reverse-splicing fitness
22 | C82G A111C A120G A145C C150U C169A U176G | 0.00557
23 | C82G A111C A120G A145C C150U C169A U176A | 0.0113
24 | C82G A111C A120G A145C C150U C169A U176C | 0.00666
25 | C82G A111C A120G A145C C150G C169G U176C | 0.00726
26 | C82G A111C A120G A145C C150G C169G U176A | 0.00837
27 | C82G A111C A120G A145C C150G C169G U176G | 0.00499
28 | C82G A111C A120C C150G C169A | 0.00742
29 | C82G A111C A120C C150G C169G | 0.00702
30 | C82G A111C A120C C150G C169U | 0.00996
31 | C82G A111C A120C A145G C150G C169A U176C | 0.0127
32 | C82G A111C A120C A145G C150G C169A U176G | 0.0086
33 | C82G A111C A120C A145G C150G C169A U176A | 0.0142
34 | C82G A111C A120C A145G C150A U176A | 0.0118
35 | C82G A111C A120C A145G C150A U176C | 0.0234
36 | C82G A111C A120C A145G C150A U176G | 0.00711
37 | C82G A111C A120C A145U | 0.0547
38 | C82G A111C A120C A145G C169A | 0.00871
39 | C82G A111C A120C A145G C169U | 0.0139
40 | C82G A111C A120C A145G C169G | 0.00771
41 | C82G A111C A120C A145G C150G C169G U176A | 0.0118
42 | C82G A111C A120C A145G C150G C169G U176G | 0.0062

Row | Variant | reverse-splicing fitness
43 | C82G A111C A120C A145G C150G C169G U176C | 0.0138
44 | C82G A111C A120G A145C C150A C169A U176G | 0.00562
45 | C82G A111C A120G A145C C150A C169A U176A | 0.0124
46 | C82G A111C A120G A145C C150A C169A U176C | 0.00779
47 | C82G A111C A120G A145C C150G | 0.00634
48 | C82G A111C A120G A145C C150A | 0.00698
49 | C82G A111C A120G A145C C150U | 0.00925
50 | C82G A111C A120C C150G U176C | 0.00847
51 | C82G A111C A120C C150G U176A | 0.00574
52 | C82G A111C A120C C150G U176G | 0.00427
53 | C82G A111C A120C A145U C150U C169A U176G | 0.00748
54 | C82G A111C A120C A145U C150U C169A U176C | 0.0124
55 | C82G A111C A120C A145U C150U C169A U176A | 0.0138
56 | C82G A111C A120C A145U C150A C169G U176A | 0.0143
57 | C82G A111C A120C A145U C150A C169G U176G | 0.00775
58 | C82G A111C A120C A145U C150A C169G U176C | 0.0169
59 | C82G A111C A120C C169G U176G | 0.00714
60 | C82G A111C A120C C169G U176C | 0.0206
61 | C82G A111C A120C C169G U176A | 0.0161
62 | C82G A111C A120C A145U C150G C169A U176C | 0.0108
63 | C82G A111C A120C A145U C150G C169A U176G | 0.00726

Row | Variant | reverse-splicing fitness
64 | C82G A111C A120C A145U C150G C169A U176A | 0.0121
65 | C82G A111C A120C C150U C169A U176G | 0.00909
66 | C82G A111C A120C C150U C169A U176A | 0.0126
67 | C82G A111C A120C C150U C169A U176C | 0.0129
68 | C82G A111C A120C A145U C169A U176G | 0.0056
69 | C82G A111C A120C A145U C169A U176C | 0.0142
70 | C82G A111C A120C A145U C169A U176A | 0.0143
71 | C82G A111C A120G A145C C150U C169G U176G | 0.00541
72 | C82G A111C A120G A145C C150U C169G U176A | 0.0216
73 | C82G A111C A120G A145C C150U C169G U176C | 0.0133
74 | C82G A111C A120G A145G C150G C169U U176G | 0.00731
75 | C82G A111C A120G A145G C150G C169U U176C | 0.0127
76 | C82G A111C A120G A145G C150G C169U U176A | 0.0106
77 | C82G A111C A120C A145G C150G U176C | 0.0113
78 | C82G A111C A120C A145G C150G U176A | 0.00652
79 | C82G A111C A120C A145G C150G U176G | 0.00667
80 | C82G A111C A120C A145U C150U C169G | 0.00788
81 | C82G A111C A120C A145U C150U C169U | 0.0116
82 | C82G A111C A120C A145U C150U C169A | 0.0102
83 | C82G A111C A120G A145G U176A | 0.017
